We go through one protein from paper PMC6781908.

Data set [1] can be described thus: GFP fluorescence in D-type motor axons. The conditions noted are these: glycan lost; control: wild-type DDR-2::GFP.
Data set [2] in a line: anti-GFP IP, anti-phosphotyrosine blot (autophosphorylation) from worms. As to conditions: glycan lost; control: wild-type DDR-2::GFP.

B1: DDR-2: N141A (protein)
parent chain: MKLLLYLFGVTFHSNTVVALELRECSHQLGMSNRKIRDEQISASSSFDLQSTGPQHARAHQESGSGAWCPKNQINSLSKEWLQISFSVDTVITSVETQGRFDDGRGMEYATAFKIQYWRPSLNAWASYKDDFELETIPANNDTEHAIRRHLDRAIIARRIRIVPVSNSTRTVCMRVEVFGCPFDDSLVFYNVDQGDLQSGISYHDFSYDGNLANSPHLTGGIGKLYDGEVGKNNVFVNHHKWVGWRRKRNGNVKLAFEFSELRNISGILIHTSNEFKKSAKAFSSATVLFSINGKDFSDTIVHFNNPEDTESEVPRWIRIPVNNRIAKVAKIRLNFGTDSDWLFISEVNFESNHTNIELLNDDVVIPDSVSYFSVTEHDDGTSMFAFIIFFFMFLIVAVIILTVLYRKREYRVKASSPSPNAKREILLTIDGNTIKHHVSPSTYQMARDNLQNALIEKMPMSPIISDYAEPDISVCSDVTANTPLLYGIDGPYDTQKRSNPLSSMVKYSDYGEVYCTTLPEIARDKLICVSRIGQGEFGEVDLCQLENRKVAVKKLHGISQADEFSFHREIRVLGSLKHPNVVEVVGVCTIQKPILCIMEYMENGDLKSYILKNPTIQTSQCISICTQLAAGLAYLESCNFVHRDIAARNCLVDGEGNVKIADFGMARSLYSQEYYKVEGKFVLPIRWMAWEALLLGKFSTASDVWGFGVTMWEIFSLCSEKPYSDMTDDDVVENLQSMSSTGSLKQVLSRPRMCPSKLYNEQILPCWNYESSRRPSFENVHLHLQSLVHTSPHIHF
B1: the localisation_or_trafficking result in data set [1] is reported as “no change”. In addition, the enzymatic_activity result in data set [2] is on record as “no change”.
